The results in this text go back to patent publication US20190359687A1 (Bayer, published 2019).

Assay [1] deals with T1, human glycophorin A on human red blood cells (human, UniProt P02724 20-150).
T1 construct: whole, on cells; also called human GPA; huGPA
T1 sequence (looked up): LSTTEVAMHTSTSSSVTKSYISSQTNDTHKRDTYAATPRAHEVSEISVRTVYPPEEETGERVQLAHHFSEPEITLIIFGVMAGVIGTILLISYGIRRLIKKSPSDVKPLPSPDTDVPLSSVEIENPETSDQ
Put plainly: partition to human RBC, human HemA plasma, 120 min.

In assay [2] the target is T1, human glycophorin A on human red blood …. Put plainly: partition to human RBC, human HemA plasma, 1 min.
Description: (§1) The supernatant containing plasma, platelets and white blood cells was discarded and the red blood cell pellet was resuspended in 10 pellet volumes of PBS (50 mM Phosphate buffer, pH7.4, 150 mM NaCl). The red blood cells were then pelleted by slow speed centrifugation and the red blood cells re-suspended in 10 volumes of PBS. This washing step was repeated 4 more times and the red blood cells finally resuspended in a volume of plasma from Hemophilia patients with less than 1% of normal levels of FVIII (GeorgeKing Bio-Medical, Overland Park, Kans.) to generate a total volume equal to the initial blood volume such that the RBC density was equal to that of normal whole blood. BDD and RBC targeted FVIII molecules were then spiked into RBC suspension in HemA plasma at 1 IU/mL, and incubated at room temperature for 2-3 hours with gentle rotation. […] An additional control was performed in which BDD or RBC targeted FVIII molecules were added at 11U/ml into the same human hemophilia A plasma and incubated for 5 minutes and 180 mins. These samples were used to determine the input FVIII activity in the presence of plasma which was used to calculate the percentage of the molecule that was bound to RBC. All plasma samples were then assayed together for FVIII activity using the Coatest SP assay (DiaPharma, Columbus, Ohio). The assay was performed following the manufacturer's instructions in a 96-well plate format. […] The plate was incubated at 37° C. for 10 minutes with shaking between each reagent addition. […] The amount of FVIII activity in the plasma reflects the amount of unbound FVIII. The FVIII activity of the same molecule spiked in to Hemophilia A plasma alone (no RBC) and incubated for 5 minutes was normalized to 100%.
Assay [3] shares this target. Put plainly: partition to human RBC, human HemA plasma, 60 min.
Description: as §1
The target is the same in assay [4]. Put plainly: partition to human RBC, human HemA plasma, 5 min.
Assay [5] shares this target. Put plainly: partition to human RBC, human HemA plasma, 15 min.
Description: as §1
Assay [6] shares this target. Description: partition to human RBC, human HemA plasma, 30 min.
Description: as §1
Assay [7] has as its target T2, Cynomolgus monkey glycophorin A on Cynomolgus monkey red blood cells (Cynomolgus monkey).
T2 construct: whole, on cells; also called Cyno GPA; Cyno RBC
Put plainly: partition to Cyno RBC, human HemA plasma, 120 min.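 Note: FVIII fusion spiked at 1 IU/mL into RBC suspension at whole-blood density.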

Assay [8] deals with T1, human glycophorin A on human red blood …. Put plainly: partition to human RBC, human HemA plasma, 120 min. The source holds these as a separate data set.
Description: as §1
The target is the same in assay [9]. Description: partition to human RBC, vWF deficient plasma, 120 min.
The target is the same in assay [10]. Description: partition to human RBC, vWF deficient plasma, 5 min.
Assay [11] addresses T2, Cynomolgus monkey glycophorin A on …. Description: partition to Cyno RBC, human HemA plasma, 30 min.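 Note: FVIII fusion spiked at 1 IU/mL into RBC suspension at whole-blood density.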
Description: (§2) To evaluate partition to cynomolgus monkey or human red blood cells, whole blood was draw from Cynomolgus monkey or normal human volunteers in to anticoagulant with 4% sodium citrate (Sigma, St Louis, Mo.). The red blood cells were purified by layering the whole blood on to ficoll followed by low speed centrifugation. The supernatant containing plasma, platelets and white blood cells was discarded and the red blood cell pellet was resuspended in 10 pellet volumes of PBS (50 mM Phosphate buffer, pH7.4, 150 mM NaCl). The red blood cells were then pelleted by slow speed centrifugation and the red blood cells re-suspended in 10 volumes of PBS. This washing step was repeated 4 more times and the red blood cells finally resuspended in a volume of plasma from Hemophilia patients with less than 1% of normal levels of FVIII (GeorgeKing Bio-Medical, Overland Park, Kans.) to generate a total volume equal to the initial blood volume such that the RBC density was equal to that of normal whole blood. BDD and RBC targeted FVIII molecules were then spiked into RBC suspension in HemA plasma at 1 IU/mL, and incubated at room temperature for 2-3 hours with gentle rotation. […] An additional control was performed in which BDD or RBC targeted FVIII molecules were added at 11U/ml into the same human hemophilia A plasma and incubated for 5 minutes and 180 mins. These samples were used to determine the input FVIII activity in the presence of plasma which was used to calculate the percentage of the molecule that was bound to RBC. All plasma samples were then assayed together for FVIII activity using the Coatest SP assay (DiaPharma, Columbus, Ohio). The assay was performed following the manufacturer's instructions in a 96-well plate format. […] The plate was incubated at 37° C. for 10 minutes with shaking between each reagent addition.
Assay [12] deals with T1, human glycophorin A on human red blood …. Description: partition to human RBC, vWF deficient plasma, 60 min.
Assay [13] has as its target T3, glycophorin A peptide GP5 (human, biotin at the N-terminus).
T3 construct: Residues 42 to 61 of the human glycophorin A extracellular domain
T3 peptide: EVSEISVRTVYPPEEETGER
Description: Octet, GP5 peptide on the probe, fusion protein in solution, 1:1 fit.

In assay [14] the target is T2, Cynomolgus monkey glycophorin A on …. Put plainly: partition to Cyno RBC, human HemA plasma, 5 min.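 Note: FVIII fusion spiked at 1 IU/mL into RBC suspension at whole-blood density.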
Description: as §2
Assay [15] has the same target. Put plainly: partition to Cyno RBC, human HemA plasma, 15 min.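 Note: FVIII fusion spiked at 1 IU/mL into RBC suspension at whole-blood density.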
The target of assay [16] is T1, human glycophorin A on human red blood …. Put plainly: partition to human RBC, vWF deficient plasma, 30 min.
For assay [17] the target is unchanged. Description: partition to human RBC, vWF deficient plasma, 1 min.
Assay [18] concerns the target T2, Cynomolgus monkey glycophorin A on …. Put plainly: partition to Cyno RBC, human HemA plasma, 60 min.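 Note: FVIII fusion spiked at 1 IU/mL into RBC suspension at whole-blood density.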
For assay [19], the target named is T1, human glycophorin A on human red blood …. Put plainly: partition to human RBC, vWF deficient plasma, 15 min.
The target of assay [20] is T2, Cynomolgus monkey glycophorin A on …. Description: partition to Cyno RBC, human HemA plasma, 1 min.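 Note: FVIII fusion spiked at 1 IU/mL into RBC suspension at whole-blood density.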

B1: B-domain deleted FVIII (other, human, UniProt P00451 20-2351, looked up)
chain: ATRRYYLGAVELSWDYMQSDLGELPVDARFPPRVPKSFPFNTSVVYKKTLFVEFTDHLFNIAKPRPPWMGLLGPTIQAEVYDTVVITLKNMASHPVSLHAVGVSYWKASEGAEYDDQTSQREKEDDKVFPGGSHTYVWQVLKENGPMASDPLCLTYSYLSHVDLVKDLNSGLIGALLVCREGSLAKEKTQTLHKFILLFAVFDEGKSWHSETKNSLMQDRDAASARAWPKMHTVNGYVNRSLPGLIGCHRKSVYWHVIGMGTTPEVHSIFLEGHTFLVRNHRQASLEISPITFLTAQTLLMDLGQFLLFCHISSHQHDGMEAYVKVDSCPEEPQLRMKNNEEAEDYDDDLTDSEMDVVRFDDDNSPSFIQIRSVAKKHPKTWVHYIAAEEEDWDYAPLVLAPDDRSYKSQYLNNGPQRIGRKYKKVRFMAYTDETFKTREAIQHESGILGPLLYGEVGDTLLIIFKNQASRPYNIYPHGITDVRPLYSRRLPKGVKHLKDFPILPGEIFKYKWTVTVEDGPTKSDPRCLTRYYSSFVNMERDLASGLIGPLLICYKESVDQRGNQIMSDKRNVILFSVFDENRSWYLTENIQRFLPNPAGVQLEDPEFQASNIMHSINGYVFDSLQLSVCLHEVAYWYILSIGAQTDFLSVFFSGYTFKHKMVYEDTLTLFPFSGETVFMSMENPGLWILGCHNSDFRNRGMTALLKVSSCDKNTGDYYEDSYEDISAYLLSKNNAIEPRSFSQNPPVLKRHQREITRTTLQSDQEEIDYDDTISVEMKKEDFDIYDEDENQSPRSFQKKTRHYFIAAVERLWDYGMSSSPHVLRNRAQSGSVPQFKKVVFQEFTDGSFTQPLYRGELNEHLGLLGPYIRAEVEDNIMVTFRNQASRPYSFYSSLISYEEDQRQGAEPRKNFVKPNETKTYFWKVQHHMAPTKDEFDCKAWAYFSDVDLEKDVHSGLIGPLLVCHTNTLNPAHGRQVTVQEFALFFTIFDETKSWYFTENMERNCRAPCNIQMEDPTFKENYRFHAINGYIMDTLPGLVMAQDQRIRWYLLSMGSNENIHSIHFSGHVFTVRKKEEYKMALYNLYPGVFETVEMLPSKAGIWRVECLIGEHLHAGMSTLFLVYSNKCQTPLGMASGHIRDFQITASGQYGQWAPKLARLHYSGSINAWSTKEPFSWIKVDLLAPMIIHGIKTQGARQKFSSLYISQFIIMYSLDGKKWQTYRGNSTGTLMVFFGNVDSSGIKHNIFNPPIIARYIRLHPTHYSIRSTLRMELMGCDLNSCSMPLGMESKAISDAQITASSYFTNMFATWSPSKARLHLQGRSNAWRPQVNNPKEWLQVDFQKTMKVTGVTTQGVKSLLTSMYVKEFLISSSQDGHQWTLFFQNGKVKVFQGNQDSFTPVVNSLDPPLLTRYLRIHPQSWVHQIALRMEVLGCEAQDLY
notes: Untargeted control without scFv; also called BDD-FVIII; BDD
As to B1, the “percentage bound to human RBC” value in assay [1] stood at 0%; in assay [2] it was 0%; in [3], 2%; in [4], 2%; in assay [5], 4%; in [6], 0%.

B2: TPP-8743 FVIII-scFv fusion protein (other)
chain: ATRRYYLGAVELSWDYMQSDLGELPVDARFPPRVPKSFPFNTSVVYKKTLFVEFTDHLFNIAKPRPPWMGLLGPTIQAEVYDTVVITLKNMASHPVSLHAVGVSYWKASEGAEYDDQTSQREKEDDKVFPGGSHTYVWQVLKENGPMASDPLCLTYSYLSHVDLVKDLNSGLIGALLVCREGSLAKEKTQTLHKFILLFAVFDEGKSWHSETKNSLMQDRDAASARAWPKMHTVNGYVNRSLPGLIGCHRKSVYWHVIGMGTTPEVHSIFLEGHTFLVRNHRQASLEISPITFLTAQTLLMDLGQFLLFCHISSHQHDGMEAYVKVDSCPEEPQLRMKNNEEAEDYDDDLTDSEMDVVRFDDDNSPSFIQIRSVAKKHPKTWVHYIAAEEEDWDYAPLVLAPDDRSYKSQYLNNGPQRIGRKYKKVRFMAYTDETFKTREAIQHESGILGPLLYGEVGDTLLIIFKNQASRPYNIYPHGITDVRPLYSRRLPKGVKHLKDFPILPGEIFKYKWTVTVEDGPTKSDPRCLTRYYSSFVNMERDLASGLIGPLLICYKESVDQRGNQIMSDKRNVILFSVFDENRSWYLTENIQRFLPNPAGVQLEDPEFQASNIMHSINGYVFDSLQLSVCLHEVAYWYILSIGAQTDFLSVFFSGYTFKHKMVYEDTLTLFPFSGETVFMSMENPGLWILGCHNSDFRNRGMTALLKVSSCDKNTGDYYEDSYEDISAYLLSKNNAIEPRSFSQNGGGGSTGGTGGSSGGGTGSGGGGTGGSGGTDIQLTQSPSFLSASVGDRVTITCRASSSVRYIYWFQQKPGKAPKLLIYATSFRQSGVPSRFSGSGSGTEYTLTISSLQPEDFATYYCHQRNSFPYTFGQGTKLEIKGGGGSGGGGSGGGGSGGGGSEVQLVQSGAEVKKPGASVKVSCKASGYTFTTYAIHWVRQAPGQGLEWMGYINPSSGYTRYNPKFKGRVTMTRDKSTSTAYMELRSLRSDDTAVYYCWTGTRDYWGQGTTVTVSSGGGGSQNPPVLKRHQREITDENQSPRSFQKKTRHYFIAAVERLWDYGMSSSPHVLRNRAQSGSVPQFKKVVFQEFTDGSFTQPLYRGELNEHLGLLGPYIRAEVEDNIMVTFRNQASRPYSFYSSLISYEEDQRQGAEPRKNFVKPNETKTYFWKVQHHMAPTKDEFDCKAWAYFSDVDLEKDVHSGLIGPLLVCHTNTLNPAHGRQVTVQEFALFFTIFDETKSWYFTENMERNCRAPCNIQMEDPTFKENYRFHAINGYIMDTLPGLVMAQDQRIRWYLLSMGSNENIHSIHFSGHVFTVRKKEEYKMALYNLYPGVFETVEMLPSKAGIWRVECLIGEHLHAGMSTLFLVYSNKCQTPLGMASGHIRDFQITASGQYGQWAPKLARLHYSGSINAWSTKEPFSWIKVDLLAPMIIHGIKTQGARQKFSSLYISQFIIMYSLDGKKWQTYRGNSTGTLMVFFGNVDSSGIKHNIFNPPIIARYIRLHPTHYSIRSTLRMELMGCDLNSCSMPLGMESKAISDAQITASSYFTNMFATWSPSKARLHLQGRSNAWRPQVNNPKEWLQVDFQKTMKVTGVTTQGVKSLLTSMYVKEFLISSSQDGHQWTLFFQNGKVKVFQGNQDSFTPVVNSLDPPLLTRYLRIHPQSWVHQIALRMEVLGCEAQDLY
notes: The entry is the mature protein without signal peptide; most of the material is cut at the furin site into two chains; also called PPB 6723
For B2, the “% bound to Cyno RBC” value in [7] was 79%; in [11], 73%; in assay [14], 53%; in [15] it was 65.7%; in assay [18], 78.5%; in assay [20], 17.4%. Further, the “percentage bound to human RBC” value in [8] was 76.4%; in [9], 79.6%; in [10], 69.5%; in [12], 78.8%; in [16], 79.4%; in assay [17], 45.9%. For the same molecule, in assay [19], the “percentage bound to human RBC” value was 78%. The molecule further came in with a dissociation constant (Kd) in [13] of 4.89 nM. The molecule also came in with a koff in [13] of 0.0027 s⁻¹. In assay [13], this molecule showed a kon of 525000 M⁻¹ s⁻¹.
